Data reported in patent US20230002466A1 (ELPIS BIOPHARMACEUTICALS, published 2023).
Where a chain is given by its changes, count along the chain named.

B1: EP003 (ligand)
chain: APTSSSTKKTQLQLEHLLLDLQMILNGINNYKNPKLTRMLTFKFYMPKKATELKHLQCLEEELKPLEEVLNLAQSKNFHLGVTDSISNAIVLARELKGSETTFMCEYADETATIVEFLNRWITFCQSIISTLT
notes: Produced in E. coli or mammalian cells; also called EP03; EP0003; not shown: C-terminal Flag and 6xHis tags
B2: EP122 (ligand)
chain: APTSSSTKKTQLQLEHLLLDLQMILNGINNYKNPKLTVMLTFKFPMPKKATELKHLQCLEEELKPLEEVLNLAQSKNFHLRPRDLISNINVIVLELKGSETTFMCEYADETATIVEFLNRWITFSQSIISTLT
B3: EP004 (ligand)
chain: B1 chain with G81C, V82P, S85T, S87E, A89I, I90T, A93I, R94Q
notes: Produced in E. coli or mammalian cells; not shown: C-terminal Flag and 6xHis tags
B4: EP126 (ligand)
chain: B2 chain with V38N, P45S
B5: EP123 (ligand)
chain: B2 chain with P45F

How the values were obtained:
[1] = target: T1, human IL2Rα Fc fusion protein (human, UniProt P01589 22-213, limits assumed); experiment: ELISA, receptor-Fc coated, anti-Flag HRP
T1 construct: also called Recombinant Fc-tagged human IL2Rα; not shown: Fc
T1 sequence (looked up): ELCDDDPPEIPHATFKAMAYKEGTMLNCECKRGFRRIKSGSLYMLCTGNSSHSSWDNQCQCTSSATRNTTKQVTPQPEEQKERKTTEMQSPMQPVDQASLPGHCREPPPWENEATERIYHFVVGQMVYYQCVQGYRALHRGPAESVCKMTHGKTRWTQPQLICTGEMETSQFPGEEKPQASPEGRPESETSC
Method: (§1) Briefly, 384 well plate was immobilized with human IL2Rα and IL2Rβ Fc fusion proteins at a final concentration of 2 ug/mL in 1×PBS in total volume of 25 uL per well. The plate was incubated overnight at 4 C and blocked with 80 uL of superblock per well for 1 hour. […] Each dilution was added to IL2Rα or IL2Rβ wells in parallel in duplicates. The IL2 mutant binding was detected by adding 25 uL of anti-Flag HRP diluted at 1:5000 in 1×PBST. In between each step, the plate was washed three times with 1×PBST using a plate washer. The plate was then developed with 25 uL of TMB substrate for five minutes and stopped by adding 25 ul of 2N sulfuric acid. The plate was read at OD450 nm Biotek plate reader and the EC50 was analyzed with Prism 8.1 software to generate EC50 values (FIG. 15A for IL2Rα, and FIG. 15B for IL2Rβ, summarized in Table 9).

[2] = target: T2, human IL2Rβ Fc fusion protein (human, UniProt P14784 27-239); experiment: ELISA, receptor-Fc coated, anti-Flag HRP
T2 construct: also called Recombinant Fc-tagged human IL2Rβ; not shown: Fc
T2 sequence (looked up): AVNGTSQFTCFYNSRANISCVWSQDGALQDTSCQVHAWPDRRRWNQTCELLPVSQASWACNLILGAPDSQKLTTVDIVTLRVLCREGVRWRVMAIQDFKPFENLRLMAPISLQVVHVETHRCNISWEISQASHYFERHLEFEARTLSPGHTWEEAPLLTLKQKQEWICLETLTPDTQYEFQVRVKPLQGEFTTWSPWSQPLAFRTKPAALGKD
Method: as §1

human IL2Rβ [3] = target: T3, human IL2Rβ (human, UniProt P14784 27-239); experiment: SPR, receptor captured on Protein A chip, E. coli-produced IL2
T3 construct: also called IL2β; CD122
T3 sequence (looked up): T2 sequence (looked up)
Method: (§2) The assay was run with Biacore T200 control software version 2.0. For each cycle, 1 μg/mL of human IL2Rβ or IL2Rα was captured for 60 seconds at flow rate of 10 μL/min on flow cell 2 in 1×HBST buffer on Protein A sensor chip. Two-fold serial diluted HIS tag purified engineered IL2 mutant was injected onto both reference flow cell 1 and IL2Rβ or IL2Rα captured flow cell 2 for 150 seconds at flow rate of 30 μL/min followed by washing for 300 seconds. The flow cells were then regenerated with Glycine pH 2 for 40 seconds at a flow rate of 30 μL/mins. Eight concentration points from 0 to 100 nM were assayed for each IL2Rβ agonist clone 96-well plate format. The kinetics data was analyzed with Biacore T200 evaluation software 3000. The specific binding response unit was derived from subtraction of binding to reference flow cell 1 from target flow cell 2.

human IL2Rα [4] = target: T4, human IL2Rα (human, UniProt P01589 22-213, limits assumed); experiment: as above
T4 construct: also called IL2α; CD25
T4 sequence (looked up): T1 sequence (looked up)
Method: as §2

human IL2Rβ [5] = target: T3, human IL2Rβ; experiment: SPR, receptor captured on Protein A chip, mammalian-produced IL2
Method: as §2

human IL2Rα [6] = target: T4, human IL2Rα; experiment: as above
Method: as §2

human IL2Rα [7] = target: T4, human IL2Rα; experiment: SPR, IL2Rα captured on Protein A chip, IL2 at 100 nM
Method: The binding kinetics of IL2Rα-reduced binding clones to IL2Rα was assessed utilizing SPR technology with a Biacore T200, software version 2.0. For each cycle, 1 ug/mL of human IL2Rα was captured for 60 seconds at a flow rate of 10 uL/min on flow cell 2 in 1×HBSP buffer on a Protein A sensor chip. 100 nM of each HIS and Flag tag purified IL2 mutant was injected onto both the reference flow cell 1 and IL2Rα captured flow cell 2 for 150 seconds at a flow rate of 30 uL/min followed by washing for 300 seconds. The flow cells were then regenerated with Glycine pH 2.0 for 60 seconds at a flow rate of 30 uL/min. A HBSP+ buffer was included with each sample as a baseline control. The assay was set up in a 96-well format. The kinetics data was analyzed with Biacore T200 evaluation software 3.0. The specific binding response unit was derived from subtraction of binding to reference flow cell 1 from IL2Rα flow cell 2 and subtraction of buffer control. […] Relative response (RU) was determined for each IL2Rα-reduced binding clone (FIG. 4, Table 3).

human IL2Rα [8] = target: T4, human IL2Rα; experiment: IL2Rα binding ELISA with E. coli culture supernatant of the clone; hFc bar as control (Example 2)

Binder	EC50 [1] [nM]	EC50 [2] [nM]	Kd (human IL2Rβ [3]) [nM]	koff (human IL2Rβ [3]) [s⁻¹]	kon (human IL2Rβ [3]) [M⁻¹ s⁻¹]	relative activity IL2Rβ (KD: fold) against WT IL2 (human IL2Rβ [3]) [fold]	Kd (human IL2Rα [4]) [nM]	relative activity IL2Rα (KD: fold) against WT IL2 (human IL2Rα [4]) [fold]	Kd (human IL2Rβ [5]) [nM]	koff (human IL2Rβ [5]) [s⁻¹]	kon (human IL2Rβ [5]) [M⁻¹ s⁻¹]	relative activity IL2Rβ (KD: fold) against WT IL2 (human IL2Rβ [5]) [fold]	Kd (human IL2Rα [6]) [nM]	relative activity IL2Rα (KD: fold) against WT IL2 (human IL2Rα [6]) [fold]	RU (at 100 nM) (human IL2Rα [7]) [RU]	Relevant binding to WT IL2 (%) (human IL2Rα [7])	binding result (human IL2Rα [8])
B1	538	1.8	0.123	0.00027	2.18e+06	35200	21.4	-2.3	0.145	0.000376	2.59e+06	6970	302	-22.4	40.8	28.7	
B2															2.5	1.76	no binding (tested: supernatant, concentration not given)
B3			0.62	0.00189	3.05e+06	7010	40.5	-4.3	0.414	0.00215	5.18e+06	2420	28.8	-2.1			
B4															2.6	1.83	no binding (tested: supernatant, concentration not given)
B5															5.3	3.73	no binding (tested: supernatant, concentration not given)
